Test results reported in patent publication US20230399374A1, “Compounds, Compositions and Methods of Use to Treat Bone Fractures” (PURDUE RESEARCH FOUNDATION, priority 2020, published 2023).
Non-standard residues stand in square brackets, D forms with d. Residues, ends and D or L forms follow the SMILES beside them. No end group written: not given here. *: point of attachment. X2 = CC1(C)C(/C=C/C2=C(Oc3ccc(CCNC(=O)CCN4C(=O)CC(*)C4=O)cc3)C(=C/C=C3/N(CCCCS(=O)(=O)O)c4ccc(S(=O)(=O)O)cc4C3(C)C)/CCC2)=[N+](CCCCS(=O)(=O)O)c2ccc(S(=O)(=O)O)cc21; Fmoc = O=C(OCC1c2ccccc2-c2ccccc21)*

Tests used:
midshaft femur fractures = settings: mouse, in vivo
Experimental: To explore the impact of peptide branching on payload targeting, the abilities of acidic oligo-aspartic acids constructed of either two chains of 5 aspartic acids each or a single linear chain of 10 aspartic acids to deliver the CK2.3 payload to fracture surfaces were compared. […] The biodistributions were determined 18 hours post-injection into ND-4 Swiss-Webster mice (n=5) bearing midshaft femur fractures 10 days post-fracture.
The biodistributions were determined 18 hours post-injection into ND-4 Swiss-Webster mice (n=5) bearing midshaft femur fractures 10 days post-fracture.
The biodistributions were determined 18 hours post-injection (e.g., into ND-4 Swiss-Webster mice (n=5) bearing midshaft femur fractures 10 days post-fracture).
In some instances, the biodistribution is determined 18 hours post-injection (e.g., into ND-4 Swiss-Webster mice (n=5) bearing midshaft femur fractures 10 days post-fracture).
The biodistribution was determined 18 hours post-injection (e.g., into ND-4 Swiss-Webster mice (n=5) bearing midshaft femur fractures 10 days post-fracture). In some instances, the accumulation of the labeled compounds in the fractured femurs are reported as a percent of the injected dose per gram of tissue. […]

[1] = mouse, in vivo, iv
Experimental: (§1) All animal experiments were performed in accordance with protocols approved by Purdue University's Institutional Animal Care and Use Committee (IACUC).

[2] = Half-life of S0456 near-IR dye conjugates at the fracture site; settings: female, ND-4 Swiss-Webster, mouse, in vivo, sc, 250 nmol/mouse
Experimental: as §1

[3] = Serum calcium after 21 days of treatment (QuantiChrom Calcium Assay); type: in vivo, Swiss Webster mouse; settings: FIG. 25
Excerpt: In some instances, using a targeted anabolic described herein (e.g., as opposed to free anabolics) is beneficial for treating bone fracture, such as, for example, because targeted anabolics hereof can limit the effects on the regulation of calcium metabolism that occurs in the kidneys for parathyroid hormones.
For quantitative determination of calcium ion (Ca^2+) and evaluation of drug effects on calcium metabolism, the QuantiChrom Calcium Assay Kit from BioAssay Systems (Hayward, CA) was used. A phenolsulfonphthalein dye in the kit specifically forms a very stable, blue-colored complex with free calcium. The intensity of the color, measured at 612 nm, is directly proportional to the calcium concentration in the sample. […] The serum was removed from the cell pellet and stored at −80° C. until calcium concentration quantification. […] After that, the samples were incubated for 3 minute at room temperature and optical density at 570-650 nm (peak absorbance at 612 nm) was read to obtain the ODSAMPLE. […] The plate was tapped to mix and optical density was measured at the same wavelength to get ODSTANDARD. […] Optical density was read at the same wavelength measurement to get ODBLANK. […]
where ODSAMPLE, ODBLANK, and ODSTANDARD are the OD readings of the Sample, Sample Blank, and the Sample plus Standard respectively; 10 is the concentration of the standard in mg/dL, and n is the sample dilution factor. […]

## RQIKIWFQNRRMKWKKIPVGESLKDLIDQC [CK2.3]
Midshaft femur fractures
  fracture targetability of payloads coupled to (L)Asp10 (in words): displayed no reduction in fracture accumulation

## N[C@@H](Cc1ccc(O)c(I)c1)C(=O)N[C@@H](CSC1CC(=O)N(CCC(=O)N[C@@H](CC(=O)O)C(=O)N[C@@H](CC(=O)O)C(=O)N[C@@H](CC(=O)O)C(=O)N[C@@H](CC(=O)O)C(=O)N[C@@H](CC(=O)O)C(=O)N[C@@H](CC(=O)O)C(=O)N[C@@H](CC(=O)O)C(=O)N[C@@H](CC(=O)O)C(=O)O)C1=O)C(=O)O (stereo partly shown) [octa-aspartic acid] (HELM PEPTIDE1{[N[C@@H](Cc1ccc(O)c(I)c1)C(=O)N[C@@H](CSC1CC(=O)N(CCC(=O)[*:2])C1=O)C(=O)O].D.D.D.D.D.D.D.D}$$$$V2.0)
[1]
  selectivity ratio: 11.2

## CC1(C)C(/C=C/C2=C(Oc3ccc(CCNC(=O)CCN4C(=O)CC(SC[C@H](NC(=O)OCC5c6ccccc6-c6ccccc65)C(=O)N[C@H](CC(=O)O)C(=O)N[C@H](CC(=O)O)C(=O)N[C@H](CC(=O)O)C(=O)N[C@H](CC(=O)O)C(=O)N[C@H](CC(=O)O)C(=O)N[C@H](CC(=O)O)C(=O)N[C@H](CC(=O)O)C(=O)N[C@H](CC(=O)O)C(=O)N[C@H](CC(=O)O)C(=O)N[C@H](CC(=O)O)C(=O)O)C4=O)cc3)C(=C/C=C3/N(CCCCS(=O)(=O)O)c4ccc(S(=O)(=O)O)cc4C3(C)C)/CCC2)=[N+](CCCCS(=O)(=O)O)c2ccc(S(=O)(=O)O)cc21 (stereo partly shown) [(D)Asp10] (Fmoc-C(X2)[dD][dD][dD][dD][dD][dD][dD][dD][dD][dD]-OH)
[2]
  half-life: > 100 h

## SVSEIQLMHNLGKHLNSMERVEWLRKKLQDVHNFVALGAPLAPRDA[dE][dE][dE][dE][dE][dE][dE][dE][dE][dE] [SEQ ID NO: 13]
[3]
  blood (serum) calcium: did not increase the blood calcium significantly in comparison to the free form
